Consider two proteins from PMC2705707 (Journal of Structural and Functional Genomics, 2009).

This data set deals with the molecule itself. The data set can be described thus: SEC + other: SDS-PAGE.

B1: YidH (natural protein, E. coli, UniProt P0ADM0 1-115, looked up)
chain: MKISRLGEAPDYRFSLANERTFLAWIRTALGFLAAGVGLDQLAPDFATPVIRELLALLLCLFSGGLAMYGYLRWLRNEKAMRLKEDLPYTNSLLIISLILMVVAVIVMGLVLYAG
Broadly, the stoichiometry N is a count of units in the complex or per binding partner. In the case of B1, the “stoichiometry N” value came to 2.

B2: YgaP (natural protein, E. coli, UniProt P55734 1-174, looked up)
chain: MALTTISPHDAQELIARGAKLIDIRDADEYLREHIPEADLAPLSVLEQSGLPAKLRHEQIIFHCQAGKRTSNNADKLAAIAAPAEIFLLEDGIDGWKKAGLPVAVNKSQPLPLMRQVQIAAGGLILIGVVLGYTVNSGFFLLSGFVGAGLLFAGISGFCGMARLLDKMPWNQRA
B2: the “stoichiometry N” value came to 2.
